peptoid linker = not defined here
Columns and labels:
[1] = ICP-MS of leg muscles for Gd(III) retention after day 4; format: in vivo, mice; details: after four days; intramuscular PA gel 1 wt %, 10 mol % Gd(III)-PA
Procedure: To measure degradation in vivo, six wild-type mice received approximately 4 μL injections of PA gels at 1 wt % loaded with 10 mol % Gd(III)-PA relative to C16V3A3E3-NH2. The injections were applied with a modified syringe pump designed to inject while withdrawing the needle to produce a gelled track of PA in situ. Injection volume varied because track length varied slightly with mouse size and small variations in each injection geometry. The tract geometry was chosen to give accurate T1 determinations because imaging slice thickness could be greater without volume averaging effects. A total of five legs were injected with PA1, four legs with PA3, and three with 100% C16V3A3E3-NH2 as a control. Mice were imaged at day 0 immediately after injections and again at day 4. The Gd(III)-PA was clearly visible in all cases (FIG. 5). […]
For Gd(III) analysis, mouse leg muscles were excised and digested in 1 mL of nitric acid per gram of tissue in Teflon tubes. […] Digest was diluted and measured using the same conditions as above.
All measurements used a Thermo X series II ICP-MS (Thermo Fisher Scientific, Waltham, Mass., USA) operating with an ESI SC-2 autosampler (Omaha, Nebr., USA). […] The two most common isotopes of Gd, 157Gd and 158Gd, were measured. 115In and 165Ho were measured as internal standards.

[2] = T1 and T2 relaxivity (r1, r2) at 1.41 T, Bruker Minispect relaxometer; format: physicochemical; details: 1.41 tesla
Procedure: Using a Bruker Minispect relaxometer operating at 1.41 T, T1 and T2 relaxivity values (r1 and r2) were determined for each agent (Table 1). […] Thermal annealing followed by addition of CaCl2 caused complex changes in the observed agent relaxivity (Table 1). […] This increased accessibility is consistent with a more extended molecular structure as indicated by SAXS.
All concentrations used in relaxivity determination were obtained using ICP-MS. Samples were digested using ACS reagent grade nitric acid (70%) for a least 2 hours at 70° C. Samples were diluted in filtered, deionized water. A standard containing the elements Bi, Ho, In, Li, Sc, Tb, and Y was added to a final concentration of 5 ng/mL (Inorganic Ventures, Christiansburg, Va., USA). Final nitric acid concentration was 3%. The instrument was calibrated using a serial dilution of Gd(III) standards (Inorganic Ventures, Christiansburg, Va., USA) with nitric acid and internal standard concentrations identical to the samples. Calibration was conducted with 1.000, 5.000, 10.00, 20.00, 50.00, 100.0, and 200.0 ng/mL Gd(III) standards.
T1 Measurements were performed at 1.41 T with a Bruker Minispect mq60 magnet, using an inversion recovery sequence. T2 measurements were acquired using a Carr-Purcell-Meiboom-Gill (CPMG) pulse sequence. PAs were weighed out and dissolved in Millipore water to form 1 mg/mL solutions, and then these solutions were serial diluted to 0.5, 0.25, 0.125, 0.05, and 0.01 mg/mL concentrations. For each concentration, T1 and T2 were measured. These solution concentrations were then measured using ICP-MS for relaxivity determination. Samples were lyophilized and resuspended in 50 mM Tris and 150 mM NaCl buffer. These were then adjusted using small volumes of 0.1 M NaOH to reach pH 7.4. T1 and ICP-MS measurements were then taken of these solutions. The relaxometer tubes were heated at 80° C. for 30 min in a water bath. The bath was allowed to come to room temperature over several hours. T1 times were measured. Finally, 100 μL of 20 mM CaCl2 solution was added to each tube. The tubes were vortex-mixed and allowed to stand for 20 minutes. ICP-MS and T1 measurements were conducted once more.

[3] = 1H NMRD profiles, fits with modified Florence approach; format: physicochemical; details: fits at 37° C.
Procedure: ^1NMRD profiles were collected with a Stelar Spinmaster FFC-2000-1T fast field cycling relaxometer in the 0.01-40 MHz proton Larmor frequency range, at 293 and 310 K. Longitudinal relaxation rates were measured with an error smaller than 1%. Proton relaxivities were calculated by subtracting the diamagnetic contribution of the peptide nanofibers in the absence of Gd(III) from the relaxation rates of the paramagnetic samples, and normalizing to 1 mM Gd(III) concentration. The profiles were analyzed using the Freed model for outer-sphere relaxation (refs. 48, 49; incorporated by reference in their entireties) and the modified Florence NMRD program for the inner-sphere relaxation (refs. 45, 46, 50; incorporated by reference in their entireties). The effect of static ZFS on nuclear relaxation is considered along with transient ZFS, where modulation is responsible for electron relaxation, provided molecular reorientation time is much longer than electron relaxation time (refs 51,52; incorporated by reference in their entireties). In order to establish which parameter was dominant in relaxivity changes, NMRD profiles of each PA were measured. NMRD profiles for all four PAs at 25° and 37° C. are shown in FIG. 3 with parameter fits obtained using the “modified Florence” approach (refs. 44-46;1 incorporated by reference in their entireties). In the fits, a Lipari-Szabo order parameter S^2 was included to consider the effect of local motions which may superimpose to the global motion of the nanostructures. A smaller S^2 value indicates a less restricted local mobility (e.g., a more flexible linkage between fiber and macrocycle). […] The NMRD fits show τm is primarily responsible for the variation in relaxivity observed upon annealing and Ca2+ cross-linking (Table 2). It is contemplated that annealing and calcium addition change macrocycle presentation on the fiber surface, extending them from the structure with increased peptide packing density and facilitating faster water exchange. […] The ^1H NMRD profiles were analyzed assuming one water molecule regularly coordinated to the Gd(III) ion in the presence of freely diffusing outer-sphere water. The contribution of the coordinated water protons […]) to the relaxation of bulk water protons (R1) largely depends on the τM of coordinated water if τ[…], as expected for Gd(HP-DO3A), according to the following relationship: R1=fM(1/[…]+τM)^-1+Ros where f^M is the mole fraction of ligand nuclei in bound positions and Ros is the outer-sphere contribution. […] is calculated by considering the simultaneous presence of both static (D) and transient (Δt) ZFS, as needed for Gd(III) complexes, through the “modified Florence” NMRD program, 4-6 assuming slow rotation, i.e. the molecular tumbling time τR is much longer than the electron relaxation time Tle. The PA fiber's micron-scale size assures that TR could be fixed to a large, constant value (≥100 ns) in the calculation of the relaxation profile. The ^1H NMRD profiles of PA 1 were repeated at both temperatures using the same Δt value of 0.0142 cm-1, D=0.046 cm-1, θ=42° (angle between the z-axis of the ZFS tensor and the metal-water direction) and a correlation time for electron relaxation τV=24 ps. A distance of closest approach of diffusing water molecules (d) of 7-10 Angstroms should be set, i.e. somewhat larger than usually found in isolated Gd(III) chelates (3.5-4 Å). […]

[4] = Addition of CaCl2 to annealed solution

Molecule	Gd(III) retention: remained in the mouse leg (ICP-MS) [1]	r1 (T1 relaxivity) [2, 4]	r2 (T2 relaxivity) [2, 4]	r1 (T1 relaxivity) ([2]; After Thermal Annealing)	r2 (T2 relaxivity) ([2]; After Thermal Annealing)	r1 (T1 relaxivity) ([2]; H2O)	r2 (T2 relaxivity) ([2]; H2O)	r1 (T1 relaxivity) ([2]; Tris Buffer (pH 7.4))	r2 (T2 relaxivity) ([2]; Tris Buffer (pH 7.4))	τm (water exchange lifetime), best-fit value ([3]; Annealed)	τm (water exchange lifetime), best-fit value ([3]; Buffered)	τm (water exchange lifetime), best-fit value ([3]; Ca^2+)	S^2 (Lipari-Szabo order parameter), best-fit value [3]	τlocal, best-fit value [3]
CCCCCCCCCCCCCCCC(=O)N[C@H](C(=O)N[C@H](C(=O)N[C@H](C(=O)N[C@@H](C)C(=O)N[C@@H](C)C(=O)N[C@@H](C)C(=O)N[C@@H](CCC(=O)O)C(=O)N[C@@H](CCC(=O)O)C(=O)N[C@@H](CCC(=O)O)C(=O)NCC(=O)N(CC(=O)N(CC(=O)N(CC(N)=O)Cc1cn(CC(O)CN2CCN(CC(=O)O)CCN(CC(=O)O)CCN(CC(=O)O)CC2)nn1)Cc1cn(CC(O)CN2CCN(CC(=O)O)CCN(CC(=O)O)CCN(CC(=O)O)CC2)nn1)Cc1cn(CC(O)CN2CCN(CC(=O)O)CCN(CC(=O)O)CCN(CC(=O)O)CC2)nn1)C(C)C)C(C)C)C(C)C (some centres unmarked) (Gd complex, metal not drawn) [PA3]	54±9%													
C16-VVVAAAEEE-(peptoid linker)-(Gd(HP-DO3A) macrocycle) (C16-VVVAAAEEE-{peptoid linker-Gd(HP-DO3A)}; reading uncertain; also: Gd(III) chelated in HP-DO3A macrocycle) [PA2, V3A3E3 peptide amphiphile, Gd(III) contrast agent conjugated at the C-terminus without a glycine linker]		21.7 ± 0.1 mM⁻¹ s⁻¹	45 ± 2 mM⁻¹ s⁻¹	16.9 ± 0.2 mM⁻¹ s⁻¹	28.6 ± 0.6 mM⁻¹ s⁻¹	17.3 ± 0.8 mM⁻¹ s⁻¹	39 ± 2 mM⁻¹ s⁻¹	16.7 ± 0.2 mM⁻¹ s⁻¹	32.2 ± 0.5 mM⁻¹ s⁻¹	540 ns	640 ns	410 ns	0.3	4 ns

— patent US20180221513A1, “CONTRAST-AGENT-LABELED PEPTIDE AMPHIPHILE NANOFIBERS” (Northwestern University, priority 2015, published 2018)
